Experimental findings from paper PMC2532715 are described below.

This data set addresses T1, SgrAI restriction endonuclease (UniProt Q9F6L0 1-338).
T1 sequence: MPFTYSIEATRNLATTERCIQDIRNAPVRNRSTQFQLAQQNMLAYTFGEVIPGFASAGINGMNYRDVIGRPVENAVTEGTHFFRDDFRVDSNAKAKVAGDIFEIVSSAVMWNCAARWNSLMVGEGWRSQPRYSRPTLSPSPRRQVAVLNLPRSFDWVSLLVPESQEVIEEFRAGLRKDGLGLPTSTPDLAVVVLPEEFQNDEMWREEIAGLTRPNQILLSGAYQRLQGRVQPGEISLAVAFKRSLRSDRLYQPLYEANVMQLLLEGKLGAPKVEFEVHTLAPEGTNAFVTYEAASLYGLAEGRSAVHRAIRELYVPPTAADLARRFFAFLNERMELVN
Description: X-ray crystallography.

B1: Cognate 18 (dsDNA)
DNA 1: GAGTCCACCGGTGGACTC
DNA 2: GAGTCCACCGGTGGACTC
With B1, the binding result is listed as “binds”.
